# Measured values as given in IntAct's records for PubMed 23135401.
# Experiments:
# pcd15_mouse Pcdh15 = pcd15_mouse Pcdh15 (UniProt Q99PJ1)
# Cdh23, Q99PF4-1 [1] = molecular target: Cdh23, Q99PF4-1
# Cdh23, Q99PF4-1 [2] = molecular target: Cdh23, Q99PF4-1; remark: listed apart in the source
# Cdh23, Q99PF4-1, sequence (Q99PF4 whole entry): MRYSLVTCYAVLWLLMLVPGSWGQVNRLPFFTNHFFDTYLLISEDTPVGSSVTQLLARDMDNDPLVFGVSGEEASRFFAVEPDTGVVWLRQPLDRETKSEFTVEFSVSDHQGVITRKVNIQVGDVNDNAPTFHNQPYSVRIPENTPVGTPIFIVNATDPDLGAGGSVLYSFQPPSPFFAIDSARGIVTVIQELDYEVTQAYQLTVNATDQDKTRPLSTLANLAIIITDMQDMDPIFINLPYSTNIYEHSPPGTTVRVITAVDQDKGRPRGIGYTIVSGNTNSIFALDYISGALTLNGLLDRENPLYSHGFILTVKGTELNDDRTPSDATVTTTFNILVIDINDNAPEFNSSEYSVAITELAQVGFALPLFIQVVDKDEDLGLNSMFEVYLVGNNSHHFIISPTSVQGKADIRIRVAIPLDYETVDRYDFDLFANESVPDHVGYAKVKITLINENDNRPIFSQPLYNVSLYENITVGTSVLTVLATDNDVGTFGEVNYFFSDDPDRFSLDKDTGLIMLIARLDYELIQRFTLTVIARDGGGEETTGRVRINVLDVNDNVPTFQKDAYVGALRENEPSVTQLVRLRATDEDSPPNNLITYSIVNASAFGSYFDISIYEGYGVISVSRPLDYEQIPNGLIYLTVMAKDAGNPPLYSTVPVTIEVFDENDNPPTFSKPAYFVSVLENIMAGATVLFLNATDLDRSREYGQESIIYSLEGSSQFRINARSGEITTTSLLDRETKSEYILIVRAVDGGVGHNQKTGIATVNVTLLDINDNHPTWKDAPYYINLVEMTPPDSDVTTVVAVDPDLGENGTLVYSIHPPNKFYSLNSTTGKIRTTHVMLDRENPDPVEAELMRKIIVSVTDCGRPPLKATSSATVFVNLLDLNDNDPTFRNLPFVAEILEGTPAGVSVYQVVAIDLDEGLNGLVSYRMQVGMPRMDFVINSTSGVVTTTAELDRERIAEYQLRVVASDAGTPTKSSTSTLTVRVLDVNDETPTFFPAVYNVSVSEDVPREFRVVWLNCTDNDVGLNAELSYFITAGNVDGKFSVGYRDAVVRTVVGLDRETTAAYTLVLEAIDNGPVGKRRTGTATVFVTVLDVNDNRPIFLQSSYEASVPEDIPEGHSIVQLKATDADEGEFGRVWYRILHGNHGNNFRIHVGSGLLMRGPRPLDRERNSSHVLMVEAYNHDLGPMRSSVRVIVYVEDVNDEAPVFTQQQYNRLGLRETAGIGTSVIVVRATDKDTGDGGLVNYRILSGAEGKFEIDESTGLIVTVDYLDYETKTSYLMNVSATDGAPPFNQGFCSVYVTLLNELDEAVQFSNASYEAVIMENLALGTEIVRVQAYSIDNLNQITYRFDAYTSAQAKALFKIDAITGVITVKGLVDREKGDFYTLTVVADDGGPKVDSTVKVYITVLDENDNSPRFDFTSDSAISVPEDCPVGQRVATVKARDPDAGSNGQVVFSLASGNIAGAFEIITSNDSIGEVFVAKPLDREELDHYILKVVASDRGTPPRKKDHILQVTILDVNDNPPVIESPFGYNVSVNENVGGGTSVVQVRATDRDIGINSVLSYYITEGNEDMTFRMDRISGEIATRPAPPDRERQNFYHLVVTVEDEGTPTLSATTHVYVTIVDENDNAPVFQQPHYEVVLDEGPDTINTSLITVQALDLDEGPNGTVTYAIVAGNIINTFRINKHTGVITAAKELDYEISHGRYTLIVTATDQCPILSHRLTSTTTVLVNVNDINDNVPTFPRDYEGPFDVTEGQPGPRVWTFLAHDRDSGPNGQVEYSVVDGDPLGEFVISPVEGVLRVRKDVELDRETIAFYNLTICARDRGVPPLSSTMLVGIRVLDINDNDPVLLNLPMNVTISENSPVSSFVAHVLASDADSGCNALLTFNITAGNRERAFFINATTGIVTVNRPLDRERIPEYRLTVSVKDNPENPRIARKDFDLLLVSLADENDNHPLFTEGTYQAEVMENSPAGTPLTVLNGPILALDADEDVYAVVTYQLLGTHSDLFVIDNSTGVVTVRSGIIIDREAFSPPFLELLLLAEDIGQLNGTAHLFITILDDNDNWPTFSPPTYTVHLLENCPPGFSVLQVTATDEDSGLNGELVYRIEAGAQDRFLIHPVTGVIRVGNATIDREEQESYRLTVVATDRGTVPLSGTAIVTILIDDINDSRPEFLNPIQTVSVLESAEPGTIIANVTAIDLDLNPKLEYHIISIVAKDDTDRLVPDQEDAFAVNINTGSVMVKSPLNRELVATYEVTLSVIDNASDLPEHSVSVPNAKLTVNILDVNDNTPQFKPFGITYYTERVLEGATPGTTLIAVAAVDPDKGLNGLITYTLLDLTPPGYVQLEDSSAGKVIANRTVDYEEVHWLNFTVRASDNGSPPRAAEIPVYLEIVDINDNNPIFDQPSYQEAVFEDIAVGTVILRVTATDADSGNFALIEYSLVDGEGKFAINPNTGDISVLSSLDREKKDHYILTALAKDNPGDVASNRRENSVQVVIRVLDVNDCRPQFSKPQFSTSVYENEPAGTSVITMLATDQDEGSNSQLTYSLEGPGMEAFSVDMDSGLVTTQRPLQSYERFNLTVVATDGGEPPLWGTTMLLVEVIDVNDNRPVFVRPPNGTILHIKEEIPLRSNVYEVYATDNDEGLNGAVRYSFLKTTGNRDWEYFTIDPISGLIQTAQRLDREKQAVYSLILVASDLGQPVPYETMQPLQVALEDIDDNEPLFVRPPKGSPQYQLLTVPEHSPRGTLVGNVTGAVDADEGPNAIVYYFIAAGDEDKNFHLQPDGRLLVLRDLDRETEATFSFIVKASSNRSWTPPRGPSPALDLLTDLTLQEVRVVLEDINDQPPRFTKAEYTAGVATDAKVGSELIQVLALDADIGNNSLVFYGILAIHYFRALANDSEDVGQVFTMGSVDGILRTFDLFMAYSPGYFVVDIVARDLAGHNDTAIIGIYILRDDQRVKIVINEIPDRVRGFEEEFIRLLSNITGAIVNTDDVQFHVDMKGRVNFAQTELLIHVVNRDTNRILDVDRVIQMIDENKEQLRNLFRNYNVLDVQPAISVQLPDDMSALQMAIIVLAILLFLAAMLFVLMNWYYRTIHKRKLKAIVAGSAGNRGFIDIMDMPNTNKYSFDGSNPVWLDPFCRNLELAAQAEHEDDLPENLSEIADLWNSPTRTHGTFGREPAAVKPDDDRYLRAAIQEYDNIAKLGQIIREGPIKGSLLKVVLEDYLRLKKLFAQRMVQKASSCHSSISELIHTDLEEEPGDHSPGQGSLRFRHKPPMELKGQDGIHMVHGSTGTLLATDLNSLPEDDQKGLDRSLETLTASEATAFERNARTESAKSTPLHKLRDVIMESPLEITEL
effect of a mutation on the interaction (pcd15_mouse Pcdh15),"effect of a mutation on the interaction (Cdh23, Q99PF4-1 [1])","effect of a mutation on the interaction (Cdh23, Q99PF4-1 [2])",Substance
decreasing interaction strength,,,"Cadherin-23 (Mus musculus), Q99PF4-1 D124G"
decreasing interaction strength,,,"Cadherin-23 (Mus musculus), Q99PF4-1 L168G"
,decreasing interaction strength,,"Protocadherin-15 (Mus musculus), Q99PJ1 I48A"
,decreasing interaction strength,disrupting interaction strength,"Protocadherin-15 (Mus musculus), Q99PJ1 R139G"
